Experiment: purified protein yield per well (BCA); higher = higher soluble expression
Procedure, shortened: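 Candidate enzymes were expressed in E. coli C41(DE3) in 2 mL autoinduction cultures with 100 µg/mL kanamycin, at 37 °C for 2 h and then 18 °C for 40 h. Cells were lysed, and protein was bound to Ni-charged magnetic beads and released by SUMO protease cleavage on an OT-2 robot. The read-out is purified protein yield per well, measured with the Pierce Rapid Gold BCA kit. Values below 25 ug (0.1 mg/mL) are below the detection threshold.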
With “QTPQAPTAASLNATSGPLSVSTQSVSSLSARGFGGGTVYYPTTAGRYGAVAISPGFTATQSSVAWLGRRLASHGLVVITINTNSTLDQPASRATQLMAALTYVTSASGTTVQSRVDPQRLAVAGHSMGGGGALIAARDNPTLKASLPLTPWNTTTNFSGIRVPTLIVGADGDTVASVTAHARPFYASLPSNTFKAYAELNSASHFTPNSANTPIGRYGVTWLKRFVDNDSRYSPFLCGAEHQAYATAQVFDRYQQNCPY [ESM188]” the “purified protein yield per well” value was less than 25 µg.
For “QTPTRESLSRQGPYQVAYYSSLPDVPEYAGATLYFPANKGDSFGGVAIAPGFIETQENIAWWGEYLASYGFAVLTLDTNSPRDIPALRADALMAAVEIIRGENTRMGSPLRGKIDVTRMAIMGHSMGGGGTLLAANAHSDQLKAAIPFTPWLPDADFSAVAVPTLVIAGEIDRIAAAAGHAWPHFQTLPDNIPKMYLEIKGGNHFIANSVTDNEGLAPNIDVHDLVGSMS [TEP027]”, the “purified protein yield per well” value was less than 25 µg.
For “QTSAPTSASLNASSGPLSVSTASVTLPRGFGGGTIYYPTVAAKYGVIAISPGFTATQSSIAWLGRRIATHGFVVITINTNTTLDQPDSRATQLVAALNHVLNSSGTAVRSRIDPARLAVAGHSMGGGGSLIAARDNPTLKASYPMTPWNISSNFSTVRVPTMIIGADGDTVAPVGTHARPFYASLPSSTFKAYGELNGATHFAPNTTSTPIGRYAVAWMKRFVDGDTRYSPFLCGAQHTSYATGLVFDRYNQNCPY [ESM054]”, the “purified protein yield per well” value was less than 25 µg.
In the case of “QTSAPTSASLNATAGPLSVSTASVLVPVGFGGGTIYYPTVAGQYGVIAISPGFTATQSSIAWLGRRIATHGFVVITLNTNTTLDQPDSRATQLLAALRYVTNSSGTAVRSRIDATRLAVAGHSMGGGGSLIAARDNPTLKASYPLTPWNISTNFSTVRVPTLIIGADGDTIAPVASHARPFYASLPSTTFKAYGELNNATHFTPNSTSTPIGRYGVAWFKRFLDGDTRYSPFLCGAQHTAYATALVFDRYNQNCPY [ESM141]”, the “purified protein yield per well” value is reported as less than 25 µg.
For “QTSAPTSSSLNATSGYLSVASENVSSLSASGFGGGTIYYPSTSGQYGLIAISPGFTATESSVAWIGRKLASHGFVAIVINTNTTLDQPASRARQLRAALDHARLRASSTVRSRIDASRQAVAGHSMGGGGSLIAAEDDPTLKASFPLTPWNTTTSFTNVRVPTMIFGADGDTIAAVAAHARPFYASIPSSTKKAYAELNGATHFTPNSRNEAIGRYGVAWMKRFMDNDTRYSTFLCGSEHNSYNTSLRFDRYNSNCPY [ESM123]”, the “purified protein yield per well” value was less than 25 µg.
For “QTSDPTSASLNASAGPLSVSTASVTAPRGFGGGTIYYPTTQARYGVIAISPGFTATETSIAWLGRRIATHGFVVITLNTLTTLDQPASRANQLMAALTYVVNSSSSAVKARIDTARLAVAGHSMGGGGALIAARDNPTLKASYPLTPWNSSTSFSTVRVPTMIVGADGDTIAPVATHARPFYASLPSATSKAYGELNNGTHFSPNSTNTPIGRYGVAWMKRFVDGDTRYSTFLCGTEHTRYATALVFDRFNQNCPY [ESM191]”, the “purified protein yield per well” value was less than 25 µg.
For “QTSDPTSTSLNATSGPLSISSTSVSSFSARGFGGGTIYYPSASGRYGVVAISPGYTARQSSIAWLGRRLASHGFVVITIDTNSTLDQPPSRATQLMAALDHVVNRASSTVRSRVDAARLAVAGHSMGGGGSLIAARDNPSLRAVYPMTPWSVSKDFSAVRVPTMIIGADNDSVASVVTHARPFYSSLAASLPKAYGELNNASHFAPNTTNTPIGRYAVTWMKRFVDGDTRYSPFLCGTPHNQYATSQVFARYQQNCPY [ESM134]”, the “purified protein yield per well” value was less than 25 µg.
In the case of “QTSPDCSAITISSSTNTGVNLVSTYLESDGIRNGTDYYGSTIYYPQNTTSILASIIIVPGYLNFESSMQNWGPFLASHGIVCMTIGTNNIFDLVNDRKEALQDALISLKAENTRVNSPLFNKLNTSRVALAGWSMGGGGAQLAAVEDSTIKAIIALCPWIDPMQISVNSLIHDVPVLFFSGQFDAVAPSSTHANIHYNYTPSTTDKLIYEISSGGHTVANVPSGGQGEVGRMALSWLKKYLIEDYCYCPLLLDTPLTASIYQTNVTCSTYGCTDSIALNYDPLATTDDGTCIYCVYGCTDSTSVNYAPLAICDDGTCIASVYGCTNATACNYYAGANINDGSCEWTSCNPTSCGASAITGLGVTNVIHDRVTLTFDNMNTYDTSGAQICRVDQLRIKYREVGTSSWSQKNMAAPTGYDPTTGICNSTQNTDKLVLGLSGSTTYEWEMRVWYCVTGATAWVVGPDFTTADNCPNIGSFTAYGSNPIRATFDWDDSNGSYEFVRIKMRVDSISNPQGTDWFQVGGFGVTYGTFTKDKNGLVAGETYRAQARTWCDPNGGAYNSLSWTALATW [TEP033]”, the “purified protein yield per well” value is reported as less than 25 µg.
For “QTTAPTSASLNASAGPLSVSTASVTAPRGFGGGTIYYPTTQARYGVIAISPGFTATQTSIAWLGRRIATHGFVVITLNTLTTLDQPDSRANQLMAALNHVINSSSSAVKARIDTSRLAVAGHSMGGGGALIAARDNPSLKASYPLTPWNINSAFSTVRVPTMIVGADGDTVAPVGTHARPFYAALPGATSKAYGELNGATHFSPNSTNTPIGRYGVAWMKRFLDGDTRYSTFLCGTEHTRYATALVFDRYNQNCPY [ESM122]”, the “purified protein yield per well” value was less than 25 µg.
For “QTTAPTSASLNATAGPLSIASASVSSLAASGFGGGTIYYPTTSGRFGVVAISPGYTASQSTIAWLGRRMASHGFVVITIDTNTTLDYPESRATQLRAALDHVINRASTTVRNKVDPARRAVAGHSMGGGGSLIAAEADSTLKAAYPMTPWNISENFSRVRVPTMIIGADGDTIAPVISHARPFYGSIPNTTFKAYGELNNASHFAPNTTNTPIGRYGVAWMKRFVDGDTRYSTFLCGAEHNRYNTSLVFDQYRSNCPY [ESM079]”, the “purified protein yield per well” value was less than 25 µg.
With “QTTAPTSASLNATAGPLSVSTASVSLPRGFGGGTIYYPTTQARYGVIAISPGFTATETSIAWLGRRIATHGFVVITLNTLTTLDQPASRANQLMAALSYVVNSSTSAVKARIDTTRLAVAGHSMGGGGALIAARDNPTLKASYPLTPWNSSTSFSTVRVPTMIIGADGDTIAPVAAHARPFYASLPGATTKAYGELNGGTHFSPNSTNTPIGRYGVAWMKRFVDGDTRYSTFLCGTEHTRYASALVFDRYNQNCPY [ESM124]” the “purified protein yield per well” value was less than 25 µg.
With “QTTAPTSSSLNATAGPYSVSTSSVTLPVGFGGGTVYYPTQTGKYGVIAISPGFTATQSSIAWLGRRLATHGFVVLTMNTLTTLDQPASRANQLMAALNYVLNSSPSAVRSRADGTRTAVAGHSMGGGGSLIAARDYPTLKASYPMTPWSPTSNFSTVRVPTMIIGADGDTIAPVATMSRVYYQNLPSTTSKAYGELNNATHFAPNMTNTPIGRYAVTWMKRFVDSDTRYSPFLCGAPHQAYATSLVFDRYSQNCPY [ESM083]” the “purified protein yield per well” value was less than 25 µg.
With “QVANPYAKGPNPTEASVTATTGPFAVTTSNISSLVSGFGGGRLYYPTATNQGTYGAIALSPGFTAGWSSIDWLGPRLASFGFVVIGIETNSRYDYPPSRGEQLLAALDWAVEDSPAASRIDPTRLAVGGHSMGGGGSLEAASDRPSLKAVLPLAPWNSDKTWNEVQVPTLIIGGESDTVAPVGSHSTPFYNSLSGEKAFLELNNASHFFPQSPNNLVAKLAISWAKRWVDNDTRYSQFLCPGPASGGLSEVQAYRQTCPF [TEP096]” the “purified protein yield per well” value was less than 25 µg.
For “QVGPAPSSSSLNATAGPFAVSTSNVILARGFGGGTIYYPSTSGLYGVVAISPGFTATESSVAWLGRRMATHGLVVITINTNTTLDQPASRATQLMAALNYVVNSASSTVRSRVDSTKLAVAGHSMGGGGALIAAEDNPTLKASLPLTPWNLSTSFTRVRVPTLIVGADGDSVASVTVHARPFYASLPASTFKAYAELNLASHFTPNSTNTPIGRYGVAWMKRFVDADTRYSPFLCGAEHNAYNTALVFDRYNQNCPY [ESM153]”, the “purified protein yield per well” value was less than 25 µg.
For “QVGPDPTSASLNATAGPFSVSTASVISPRGFGGGTIYYPTTTGRYGVVAISPGFTATQSSIAWLGRRLATHGLVVITMNTNSTYDQPSSRATQLMAALNYVVNSSSSTVRARVDSSKLAVAGHSMGGGGALIAAENNPTLKASLPLTPWNSSTNFSDVRVPTLIVGADGDSVASVSRHARPFYASLPSNTFKAYAELNGASHFTPNSTSTPIGRYGVAWMKRFVDADTRYSPFLCGAAHQSYATSLVFDRYSQNCPY [ESM125]”, the “purified protein yield per well” value was less than 25 µg.
In the case of “QVGPTPTSSSLNVTAGPFAVSSSRVFSPRGFGGGTIYYPTTSGQYGVVAMSPGFTATESSIAWLGRRLATHGLVVITINTNSTYDQPASRATQLMAALNHVLNSASSTVRSRVDSSKLAVAGHSMGGGGALIAAQNNPTLKAALPLTPWNTSTRFDGVRVPTLIVGADGDSVARVASHARPFYASLPATTFKAYAELNGASHFAPNSTNTPIGRYGVAWMKRFVDADTRYSPFLCGAAHDAYATSAVFDRYNDNCPY [ESM085]”, the “purified protein yield per well” value is reported as less than 25 µg.
For “QVVVFEETFSTGLGKFTAAGSVVTSSGAARLDGCYGCTDGSITSTAISTVDFTGLRLSFDRVTSGLDSGEAGIAEFSTNGSTYTAVESIRTASGRVTFNLPTSAENQSGLRLRFRINASLSSETYTVDNIRLEGTSGSGGGTTNPFEKGPDPTKTMLEASTGPFTYTTTTVSSTTASGYRQGTIYHPTNVTGPFAAVAVVPGYLASQSSINWWGPRLASHGFVVITIDTNSTSDQPPSRATQLMAALNQLKTFSNTSSHPIYRKVDPNRLGVMGWSMGGGGTLIAARDNPTLKAAIPFAPWNSSTNFSTVSVPTLIIACESDSTAPVNSHASPFYNSLPSTTKKAYLEMNNGSHSCANSGNSNAGLIGKYGVSWMKRFMDNDTRFSPYLCGAPHQADLSLTAIDEYRENCPY [TEP066]”, the “purified protein yield per well” value was less than 25 µg.
In the case of “RDLPPSAPLAANPYERGPAPTVASIEATLGPFATAQTTVAAGSVSGFGGGTIYYPTSTAEGTFGAVAISPGFTARQTSVAWLGPRLASQGFVVITIDTRSVYDQPASRGTQLLAALDYLTNTSTVRTRIDRNRLAVMGHSMGGGGSLSAASTRPALQAAIPLTGWHTQKSWSSVRVPTLVIGAENDTVAPVSSHSEPFYTSLPATLDKAYLELNAASHSAPTSSNVTVAKYSISWLKRFVDDDTRYEQFLCPAPRGSAIEEYRDTCPHS [TEP042]”, the “purified protein yield per well” value is reported as less than 25 µg.
In the case of “RPAESGASAAAVQATGTQRGPDPTIAMIEATRGPFATAQVSAPSGNGFGGGVVYYPTDTTQGTWGALAIVPGYSALCSTEEAWMGPWLSSFGFVVICTETNTRTDSDSQRAAELQAALTWLTTQSPVKSEVDPARLSVLGHSAGGAGAMEEAEQHPELRAAIGLAPGFPGQGLTLATDTVPTLIVGGQNDGTVTPSYLSNLYGTLPASTQSDFAQIAGADHVYYTHANNIEMKLIIPWLKVFVDSDTRYTQFLCPTLPDPSTISAYQPKCPYVPSGGSTPPPPTSVAIVGTGSGRCVTVPGGTQTGGTQVQLADCAGGTSQQWTNTATGQLQVFGTSCLDANARGTSPGTKVIIWSCNGQQNQQWTVHADGSITGVQSGLCLDATGAGTANGTPLELWTCNGGSNQKWTLQ [TEP132]”, the “purified protein yield per well” value is reported as less than 25 µg.

Source: the supplement of paper PMC12455559
